Consider 5 molecules from patent US20200369764A1 (INNATE PHARMA, published 2020).

The target in one test is Human Siglec-7 (human) (UniProt Q9Y286). Description: flow cytometry, fresh purified human NK cells (CD3-/CD56+), isotype control plot. On the technique in general: A flow cytometer gives signals particle by particle.
In test [1] the target is T1, Human Siglec-9 (human, UniProt Q9Y336 18-463).
T1 construct: on transfected CHO cells, YTS Siglec-9* cells, or native on primary NK cells and moDC (see assay); also called huSiglec-9; CD329
T1 sequence (Q9Y336 18-463): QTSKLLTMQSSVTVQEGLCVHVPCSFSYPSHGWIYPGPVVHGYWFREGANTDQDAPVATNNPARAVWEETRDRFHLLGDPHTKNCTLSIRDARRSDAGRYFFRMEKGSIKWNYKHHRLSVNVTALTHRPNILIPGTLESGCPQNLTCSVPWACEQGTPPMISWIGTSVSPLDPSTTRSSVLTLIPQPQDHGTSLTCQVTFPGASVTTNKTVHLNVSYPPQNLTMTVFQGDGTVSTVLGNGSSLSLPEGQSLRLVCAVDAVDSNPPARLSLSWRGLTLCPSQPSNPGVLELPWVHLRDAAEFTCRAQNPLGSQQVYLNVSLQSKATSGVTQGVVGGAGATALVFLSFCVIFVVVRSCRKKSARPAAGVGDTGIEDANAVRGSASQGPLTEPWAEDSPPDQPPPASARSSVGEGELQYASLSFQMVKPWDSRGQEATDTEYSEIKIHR
The test is described as above.

Test [2] concerns the target T1, Human Siglec-9. Description: flow cytometry titration on moDC, neuraminidase-treated against untreated. The method, then: moDC were desialylated for 2 hours with 25 mU neuraminidase (Roche Diagnostics).
Binding on moDCs and neuraminidase treated moDCs was tested in a titration experiment by flow cytometry. Cells were incubated 1h in Staining Buffer (SB) with primary antibodies at 10 μg/ml and a series of dilution of 1:10. They were washed two times with SB, then incubated 30 min with a Goat F(ab′)² Anti-Human IgG (Fc) PE (Jackson ImmunoResearch), and washed twice with SB.

Human Siglec-7 (human), sequence (Q9Y286 19-467): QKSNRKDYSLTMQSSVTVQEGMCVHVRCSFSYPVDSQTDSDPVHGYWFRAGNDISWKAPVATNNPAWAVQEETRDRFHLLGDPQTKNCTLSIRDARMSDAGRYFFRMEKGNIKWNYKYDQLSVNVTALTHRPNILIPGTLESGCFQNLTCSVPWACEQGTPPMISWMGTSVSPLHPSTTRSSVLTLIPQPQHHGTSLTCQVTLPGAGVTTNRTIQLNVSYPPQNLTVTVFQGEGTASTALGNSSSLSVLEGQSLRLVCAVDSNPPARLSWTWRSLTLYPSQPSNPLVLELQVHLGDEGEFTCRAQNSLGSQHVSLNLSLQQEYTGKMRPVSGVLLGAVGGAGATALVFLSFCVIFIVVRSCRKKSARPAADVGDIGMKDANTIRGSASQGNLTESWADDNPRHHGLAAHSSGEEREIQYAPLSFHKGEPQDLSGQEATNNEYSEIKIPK

In the test with Human Siglec-7 (human), Isotype control - APC (antibody) had a % of NK cells in Q1 (APC positive, PE negative) of 0.975%; a % of NK cells in Q2 (APC positive and PE positive) of 0.34%.

As to Isotype control - PE (antibody), in the test with Human Siglec-9 [1], the % of NK cells in Q2 (APC positive and PE positive) amounted to 0.34%; the % of NK cells in Q3 (PE positive, APC negative) turned out to be 2.54%.

B1: mAbA (antibody, V domains shown)
VH: QVQLQQPGAELVKPGSPVKLSCKASYFTFTSYWMHWVRQRPGQGLEWIGEINPSNGHTNYNEKFESKATLTVDRSSSTAYMQLSSLTSEDSAVFYCANGVESYDFDDALDYWGQGTSVTVSS
VL: DIQMTQTTSSLSASLGDRVTISCRASQDINNYLNWYQQKPDGTIKLLIYYTSRLHSGVPSRFSGSGSGTDYSLTINNLEQEDIATYFCQQGNTLPFTFGGGTKLEIK
notes: chimeric human IgG1, heavy chain N297Q (Kabat EU numbering)
With B1, the “fold enhancement of EC50 on moDC after neuraminidase treatment” value (shortened to “fold enhancement of EC50 on moDC”) in the test with Human Siglec-9 [2] worked out at 10 fold.

B2: mAbC (antibody, V domains shown)
VH: QIQLVQSGPELKKPGETVKISCKASGYTFTNYEMNWVKEAPGKGLKWMGWINTYTGESTYADDFKGRFAFSLETSASTVYLQINNLKDEDVATYFCVRDDYGRSYGFAYWGQGTLVTVSA
VL: NIVLTQSPASLTVSLGQRANISCRASESVDSYGNSFMHWYQQKPGQPPKLLIYLASKLESGVPARFSGSGSRTDFTLTIDPVETDDAATYYCHQNNEDPPWTFGGGTKLEIK
notes: as for B1
On to B2, for which, in the test with Human Siglec-9 [2], the “fold enhancement of EC50 on moDC” value stood at 10 fold.

B3: mAbD (antibody, V domains shown)
VH: QIQLVQSGPELKKPGETVKISCKASGYTFTDYSMHWVKQAPGKGLKWMGWIITETGEPTYADDFRGRFAFSLETSANTAYLQINNLKNEDTATYFCARDFDGYWGQGTTLTVSS
VL: DILMTQSPASLSASVGETVTITCRASENIYSYLAWYQQKRGKSPQFLVYNAKTLTEGVPSRFRGSGSGTQFSLKINSLQPEDFGTYYCQHHYGFPWTFGGGTKLEIK
notes: as for B1
In the case of B3, the “fold enhancement of EC50 on moDC” value with Human Siglec-9 [2] worked out at 10 fold.
